# Assay results published in doi:10.1101/2025.10.15.682582.
# How the values were obtained:
# [1] = biological target: Noregen, recombinant norrin-derived growth factor (human) (UniProt Q00604); assay: AUC
# [2] = biological target: Noregen, recombinant norrin-derived growth factor (human) (UniProt Q00604); assay: intact LC/ES-MS
# Noregen, recombinant norrin-derived growth factor, sequence (Q00604 25-133): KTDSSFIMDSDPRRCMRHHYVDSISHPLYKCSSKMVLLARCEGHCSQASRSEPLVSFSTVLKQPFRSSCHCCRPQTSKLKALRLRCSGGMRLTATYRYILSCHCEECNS
substance,measurement,setting,value
"Noregen, recombinant norrin-derived growth factor (from UniProt Q00604 25-133) (ligand)",percent of total content in the dimer peak,[1],99.9%
same,stoichiometry N,[1],2
same,percent present as dimer,[2],98%
same,stoichiometry N,[2],2
